B1: HDV Ribozyme (parent)
chain: GGCCGGCAUGGUCCCAGCCUCCUCGCUGGCGCCGGCUGGGCAACAUUCCGAGGGGACCGUCCCCUCGGUAAUGGCGAAUGGGACCCA

Variants of B1 are the subject of this series. Put plainly: self-cleavage, relative activity (ratio to wild type); higher = more cleavage; co-transcriptional.
Regarding GGCCGGCACGGUCCCAGCCUCCUCGCUGGCGCCGGCGGGGCAACAUUCCGAGGGGACCGUCCCCUCGGUAAUGGCGAAUGGGACCCA, the self-cleavage is 0.

In the case of GGCCGGCAUGGUCCCAGCCUCCUCGCUGGCGGCGGCUGGGCAACAUGCCGAGGGGACCGUCCCCUCGGUAAUGGCGAAUGGGACCCA, the self-cleavage is 0.0594.

On to GGCCGGCACGGUCCCAGCCUCCUCGCUGGCGCCGGCUGGGCAACAUUCCGAGGGGACCGUCCCCUCGGUUAUGGCGAAUGGGACCCA, for which the self-cleavage was determined as 0.831.

Turning to GGCCGGCAUGUUCCCAGCCUCCUCGCUGGCGCCGGCUGGGCAACAUUCCGAGGGGACCGUCCCCUCGGUAAUGGCGAAUGUGACCCA, the self-cleavage amounted to 0.138.

For the variant GGCCGGCAUGGUCCCAGCCUCCUCGGUGGCGCCGGCUGGGCAACCUUCCGAGGGGACCGUCCCCUCGGUAAUGGCGAAUGGGACCCA, the self-cleavage turned out to be 0.364.

Regarding GGCCGGCAUGGUCCCAGCCUCCUCGCUGGCGCCGGCUGGGCAACAUUCCGAGGGGUCCGUCCCCUCGGUAAAGGCGAAUGGGACCCA, the self-cleavage is 0.764.

On to GGCCGGCAUGGUCCCAGCCUCCUCGCUGGCGCCGGCUGGGCAACAUUCCGAGGGGCCCGUCCCCUCGGUAAGGGCGAAUGGGACCCA, for which the self-cleavage was 0.383.

As to GGCCGGCAUGGUCCCAUCCUCCUCGCUGGCGCCGGCUGGGCAACAUUCCGAGGGGACCGUCCCCUCGGUAAUGGCGAAUGGGAGCCA, the self-cleavage is 0.439.

GGCCGGCAUGGUCCCAGCCUCCUCGCUGACGCCGGCUGGGCAACAUUCCGAGGGGACCGUCCCCUCGGUAAUGGCGAAUGGGACCCC: the self-cleavage turned out to be 0.0602.

As for GGCCGGCAUGGUCCCAGCCUCCGCGCUGGCGCCGGCGGGGCAACAUUCCGAGGGGACCGUCCCCUCGGUAAUGGCGAAUGGGACCCA, the self-cleavage came out at 0.217.

For the variant GGCCGGCAUGGUUCCAGCCUCCUCGCUGGCGCCGGCUGGGCAACAUUCCGAGGGGACCUUCCCCUCGGUAAUGGCGAAUGGGACCCA, the self-cleavage was found to be 0.831.

GGCCGGCAUGGUCCCAGCCUCCUCGCUGCCGCCGGCUGGGCAACAUUCCGAGGGAACCGUCCCCUCGGUAAUGGCGAAUGGGACCCA: the self-cleavage turned out to be 0.166.

On to GGCCGGAAUGGUCCCAGCCUCCUCGCUGGCGCCGGCUGGGCAACAUUCCGAGGGGACCGUCCCCUCGGUAAUGGCGAAUGGGACCCG, for which the self-cleavage is 0.521.

Regarding GGCCGGCAUGGUCCCAGCCUCCUCGCUGGCGCCGGCCGGGCAACAUUCCGAGGGGACCGUCCCAUCGGUAAUGGCGAAUGGGACCCA, the self-cleavage was 0.831.

For the variant GGCCGGCAUGGUCCCAGCCUGCUCGCUGGCGCCGGCUGGGCAACAUUCCGCGGGGACCGUCCCCUCGGUAAUGGCGAAUGGGACCCA, the self-cleavage was 0.

Take GGCCGGCAUGGUCCCAGGCUCCUCGCUGGCGCCGGCUGGGCAACAUUCCGAGGGGACCGUCCCCUCGGUAAUGGAGAAUGGGACCCA: the self-cleavage was 0.

For the variant GGCCGGCAUGGUCCCAGCCUCCUCGAUGGCGCCGGCUGGGCAACAUUCCGAGGGGACCAUCCCCUCGGUAAUGGCGAAUGGGACCCA, the self-cleavage was 1.

Consider GUCCGGCAUGGUCCCAGCCUCCUCGCUGGCGCCGGCUGGGCAACAUUCCGAGGGGACCGUCCCCUCGGUAAUGGCGAGUGGGACCCA, for which the self-cleavage worked out at 0.089.

Consider GGCCGGCAUGGUCCCAGCCUCCUCGCUGGCGCCGGCUGGGCAACAUUCCGAGGGUACCGUCCCCCCGGUAAUGGCGAAUGGGACCCA, for which the self-cleavage was 0.73.

On to GUCCGGCAUGGUCCCAGCCUCCUCGCUGGCGCCGGCUGGGCAACAUUCCGAGGGGACCGUCCCCUCGGUAAUGGCGAAUGGUACCCA, for which the self-cleavage came out at 0.0171.

As for GGCCGGCAUGGUCCCAGCCUCCUCGCUGGCGCCGGCUGGGCAACAUUCCGAGGGGACCUUCCCCUCGGUAAUGGCGAAUGUGACCCA, the self-cleavage amounted to 0.433.

Consider GGCCGGCAUGGUCCCAGCCUCCUCGCUGGUGCCGGCUGGGCAACAUUCCGAGGGGACCGUCCCCUCGGUAAUGGCGAAUGGGACCAA, for which the self-cleavage was determined as 0.923.

Regarding GGCCGGCAUGGUCCCAGCCUCCUCGCUGGCGCCGUCUGGGCAACAUUCCGAGGGGACCGUCCCCUCGGUAAUGGCGAAUGGGACCGA, the self-cleavage came out at 0.397.

With GGCCGGCAUGGUCCCAGCCUCCUCGCUGGCGGCGGCUGGGCAACAUUCCGAGGGGACCCUCCCCUCGGUAAUGGCGAAUGGGACCCA, the self-cleavage was 0.0923.

For the variant GGCCGGCAUGGUCCCAGCCUACUCGCUGGCGCCGGCUGGGCAACAUUCCGAGGGGACCGUCCCCUCGGUAAUGGUGAAUGGGACCCA, the self-cleavage was 0.0297.

For GGCCGGCAUGGUCCCAGCCUCCUCGCUGGCGCGGGCUAGGCAACAUUCCGAGGGGACCGUCCCCUCGGUAAUGGCGAAUGGGACCCA, the self-cleavage was determined as 0.0308.

Regarding GGCCGGCAUGGUUCCAUCCUCCUCGCUGGCGCCGGCUGGGCAACAUUCCGAGGGGACCGUCCCCUCGGUAAUGGCGAAUGGGACCCA, the self-cleavage came to 0.612.

Take UGCCGGCAUGGUCCCAGCCUCCUCGCUGGCGCCGGCUGGGCAACAUUCGGAGGGGACCGUCCCCUCGGUAAUGGCGAAUGGGACCCA: the self-cleavage was 0.181.

Regarding GGCCGGCAUGGUCCCAGCCUCCUCGCUGGCGCCAGCUGGGUAACAUUCCGAGGGGACCGUCCCCUCGGUAAUGGCGAAUGGGACCCA, the self-cleavage was 0.217.

As to GGCCGGCAUAGUCCCAGCCUCCUCGCUGGCGCCGGCUGGGCAACAUUCCGUGGGGACCGUCCCCUCGGUAAUGGCGAAUGGGACCCA, the self-cleavage worked out at 0.923.

Turning to GGCCGGCAUGGUCCCAGCCUCCUCGCUGGCGCCGGCUUGGCAACAUUCCGAGGGGUCCGUCCCCUCGGUAAUGGCGAAUGGGACCCA, the self-cleavage is 0.273.

On to GGCCGGCAUGGUCCCAGCCUCCUCGCUGGCGCCGGCUGGGCAACAUUCCCAGGGGACCGUCCCCUCGGUAAUGGCGGAUGGGACCCA, for which the self-cleavage came to 0.665.

The values are drawn from the RNAGym collection of RNA variant scans (doi:10.7554/elife.80360).
